Series [1] deals with T1, F119L phosphomannomutase2 (human) (UniProt O15305).
T1 sequence: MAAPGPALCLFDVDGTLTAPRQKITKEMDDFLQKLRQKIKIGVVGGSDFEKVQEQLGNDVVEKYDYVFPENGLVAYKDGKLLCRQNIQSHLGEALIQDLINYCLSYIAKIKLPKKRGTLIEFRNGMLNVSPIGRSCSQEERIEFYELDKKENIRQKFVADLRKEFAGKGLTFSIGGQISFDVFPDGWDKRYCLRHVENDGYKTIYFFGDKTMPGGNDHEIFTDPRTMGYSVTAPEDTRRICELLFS

Series [2] concerns the molecule itself. The series is described as follows: SEC; analytical, BioSep-SEC-S3000 column, Hepes 20 mM pH 7.5, NaCl 150 mM, MgCl2 5 mM, room temperature, 0.5 ml/min; wt-PMM2 10 μg, F119L 7 μg, or mixture of 5 μg wt-PMM2 and 3.5 μg F119L. In general terms: SEC sorts molecules by how far they enter the pores of the column.

Changes are numbered by the printed parent chain. Names may count otherwise.

B1: R141H phosphomannomutase2 (enzyme)
chain: T1 sequence with L119F, R141H
In series [1], B1 registered a corrected specific phosphoglucomutase activity (per amount of F119L) of Superdex75 fractions, F119L:R141H 1:1 to 1:3.5, compared with F119L alone; 5 μM Glc-1,6-P2 and 40 μM Glc-1P of 3 fold.

B2: F119L phosphomannomutase2 (enzyme, human, UniProt O15305-1 1-246, looked up)
chain: T1 sequence
notes: Phosphomannomutase2 (PMM2), human, pathological variant p.Phe119Leu (rs80338701); also called hypomorphic mutant
As to B2, in series [2], the binding result is recorded as “binds”.

B3: wild type phosphomannomutase2 (enzyme, human, UniProt O15305-1 1-246, looked up)
chain: T1 sequence with L119F
notes: Phosphomannomutase2 (PMM2), human, UniProt entry name PMM2_HUMAN; also called wt-PMM2; PMM2
Turning to B3, in series [2], the binding result is listed as “binds”.
